Assay results as given in the supplement of paper PMC9170038.

Assays:
[1] = system: K4 kissing-loop RNA reporter; assay: apparent KD of K4 kissing-loop reporter; higher = weaker reporter binding; details: Eterna round: R107;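 also: bound reporter read as fluorescence of individual clusters on recovered sequencing chips by microscopy, with normalized cluster intensities fitted with a binding model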
Description: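 RNA-MaP round R107: designed RNA switches with theophylline, tryptophan, arginine or FMN aptamers are transcribed on-chip within common flanks. They are titrated with a labelled K4 kissing-loop RNA reporter in RNA-MaP buffer (100 mM Tris pH 7.5, 80 mM KCl, 4 mM MgCl2), without ligand or with the indicated ligand. Median apparent KD per design.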

[2] = system: MS2 coat protein; assay: apparent KD of MS2 coat protein; designed switch direction (-1 OFF switch, 1 ON switch): -1; higher = weaker reporter binding
How it was run: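 Each step of the titration lasted 0.8–1.5 h at the lowest concentration and 10–20 min at the highest. The protein, SNAP-549-labelled MS2 coat protein, went from 0.7 or 1.5 nM doubling to 3 µM over RNA switches transcribed on Illumina chips by stalled E. coli RNA polymerase. Normalised cluster fluorescence was curve-fitted, and the per-design median over clusters is given as apparent KD.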

[3] = input ligand: theophylline 20 uM
[4] = input ligand: tryptophan 2.4 mM
[5] = input ligand: microRNA oligo, concentration not stated
[6] = Eterna round: R95, input ligand: microRNA oligo, concentration not stated

Row | Sequence | apparent KD of K4 kissing-loop reporter ([1]; input ligand: FMN 200 uM) [nM] | apparent KD of K4 kissing-loop reporter ([1]; input ligand: arginine 13.2 mM) [nM] | apparent KD of K4 kissing-loop reporter ([1]; input ligand: none) [nM] | apparent KD of K4 kissing-loop reporter [1, 3] [nM] | apparent KD of K4 kissing-loop reporter [1, 4] [nM] | apparent KD of MS2 coat protein [2, 5] [nM] | apparent KD of MS2 coat protein ([2]; input ligand: FMN 200 uM) [nM] | apparent KD of MS2 coat protein ([2]; input ligand: none) [nM] | apparent KD of MS2 coat protein [2, 6] [nM] | apparent KD of MS2 coat protein ([2]; Eterna round: R95, input ligand: FMN 200 uM) [nM] | apparent KD of MS2 coat protein ([2]; Eterna round: R95, input ligand: none) [nM]
1 | UGUACCGAGUCAGGAUAUCAUAAUAAAUGCAGUGAUGUUGCAAUAACCAGUACAAAAGUGCUGGAUUGAGAAGGGACUUGGUACU [FmnBS 5 #SwitchBubble #StaticStem] | 99 | 126 | 126 | 119 | 112 |  |  |  |  |  | 
2 | CCGAUACAUUAUUCUACGGCCGAGAGUGAUACCAGCCAUAUUUAUGGCCCUUGGCAGCGCAGAUGCAGUGAUGUUGCAUACUUAC [Same State Theophylline A GF 19] | 85.7 | 119 | 91.5 | 115 | 73.7 |  |  |  |  |  | 
3 | UGAUUGGCGAAAGUAGUGAUGUUACGAAUAUAGGAUAUUAGAGGAAUAAGAAGGAUAAGGGAGAAAUAGGUAAAUUGUUGGUUGG [whbob_SS_FMNA__2th170] | 132 | 79.7 | 128 | 126 | 100 |  |  |  |  |  | 
4 | UGCCGCAAGGCGAGCGCUCCCACUCCGGAAGGAGCGCCCGCAAGGGCAGGUAGGUCGCCGGAGUGAUGUUCCGGUGGAGGGCUCG [#2 Exclusion - Arginine A Attempt #25 (Inspired by Omei)] | 201 | 188 | 174 | 164 | 157 |  |  |  |  |  | 
5 | AGCUCAGCGUGACUCGAUAAGAGUCACAAACGAGGACCGGUACGGCCGCCACUCGAAAUAAAGGGAGUGAUGUUCUCGCUGAGCA [#SwitchBubble 4 #StaticStem #K4Late] | 641 | 300 | 370 | 274 | 625 |  |  |  |  |  | 
6 | CAUAGACAAGUGAUGUUUGUCAUAACCGAAGGAGCGUCGUUGAAGACAGGUAGGUCGCGGAUUAAUUAAGAUUAUAUUCUUUUUA [JR_SSArginiA_Sub019] | 605 | 485 | 634 | 624 | 505 |  |  |  |  |  | 
7 | UGAUUGGCAAAAGUAGUGAUGUUACGAAUAUAGGAUAUUAGAGGAAUAAGAAGGAUAAGGGAGAAAUAGGUAAAUUGUUGGUUGG [whbob_SS_FMNA__2th171] | 45.6 | 48.4 | 285 | 150 | 70.3 |  |  |  |  |  | 
8 | AAUUUGGGUUCGGCCGCCACUCCAGUGAUGUUGGAUGGCGAAAUAAAGGCUAGACCAGGUUGCCGGAGGACCGGGAAUCCUGUAC [Qumabi] | 182 | 152 | 164 | 139 | 112 |  |  |  |  |  | 
9 | UGACUGGAUGGAAGGAGCGCUAAACUCCUAGUGAUGUUAGGGACACGAGACAAAGUCUUGAAGCAGGUAGGUCGCCAUCUAGUCU [FiskerMod 9 - Jieux - Same State - Arginine B] | 217 | 187 | 229 | 228 | 238 |  |  |  |  |  | 
10 | GGUCGAGUGAUGUUCGAUGUUAUGCAUUCAGAGGAUAUAGGAUUAGCUAGAAGGCUGAAUCAAUCUUCGAGUGAUGUUCGAGGAU [Same State FMN A GF 9] | 133 | 108 | 115 | 123 | 112 |  |  |  |  |  | 
11 | CAUACGCAUGGAGGAUAUGAGAUUACUCAUGUCAUUUAAUAUUCUCAGUGAUGUUGAGAUUUUGGCUCAGAAGGCCAUGUGUAUG [Ex FMN B 18] | 436 | 496 | 534 | 599 | 543 |  |  |  |  |  | 
12 | GGCCCGGGCUCGGCCGCCACUCCCUCGUACCGCAAGGUAUGAUACCGAGUGAUGUUCGGUUGGAGGAGGACCGGGAGCCCGGGCC [#2 Exclusion - Tryptophan B Attempt #6 (HarryS)] | 116 | 118 | 106 | 101 | 102 |  |  |  |  |  | 
13 | CCUGCUACGUAAGGAUAUGGAAAUGAGUGAUGUUUAGAGAUAUGGUCCAGGUUUAGUCAUCAUAGACCAGAAGGUACAUCGGGCG [theeternabot_exclusion_KL_FMN_B_8] | 825 | 321 | 588 | 364 | 400 |  |  |  |  |  | 
14 | AAUAAAAUCACGGCCGCCACUGAUGCUAAUAUUGGCAGUGAUGUUGCUAUGUAUAUUUUAUUUGACAGGACCGGGUGAAUAUUUA [#24 K4 Tryptophan B Exclusion] | 224 | 198 | 245 | 263 | 137 |  |  |  |  |  | 
15 | AAGGUCACCACUACAGUGAUGUUGUAGGAGCAGGAUAUGCAGAAAUGCAGAAGGGCUCGCUCCAGGUGACCGAAUGAAACAUUCA [Omei KL FMN A SS A v4] | 217 | 341 | 382 | 325 | 381 |  |  |  |  |  | 
16 | CGUGAGUGCCGACGGUCAUCGGUCCAUGCACGAGGACCGGUACGGCCGCCACUCGAGCGUGGCAGUGAUGUUGCCAGCGCACUAA [Oninvexece] | 114 | 89.5 | 101 | 98.5 | 85.6 |  |  |  |  |  | 
17 | GUGUAGUCAGGAUAUACAUAGGAAGAGAAGAGAAGAGAAGCACAUGAGGAUCACCCAUGUAGAAGGGACAGUGU [Excluse me!! 4 - Jieux - Exclusion 2] (Eterna round: R96, puzzle: Exclusion 2) |  |  |  |  |  | 40.1 |  |  |  |  | 
18 | ACUCACGCAGGAUAUACAUGAGGAUCACCCAUGUUCGAAGGGCGUGGGCACAAAGUCUGUAGAAGGGCGAAAAU [Zave] (Eterna round: R97, puzzle: Exclusion 3) |  |  |  |  |  |  | 19.2 | 16.3 |  |  | 
19 | UAUAUAUAGUAAGGAUAUGUAUAUAUGUUAUAAACAGAAGGUACUGACAUGAGGAUCACCCAUGUUUUAGUGUGGGCAUGUAGA [JMF's solution 59] (Eterna round: R96, puzzle: Exclusion NG 1) |  |  |  |  |  | 53.8 |  |  |  |  | 
20 | UAGAUGGGAGGAUAUACGUAGAUGCAGGUUCGUGUGGUGCUACAUGAGGAUCACCCAUGUAGAAGGCCCGUCUU [JL-ex2-2.29 Mayanne mod] (puzzle: Exclusion 2) |  |  |  |  |  |  |  |  | 13.6 |  | 
21 | AGUACUAACACGAAAGUGUUAGUACAAUAAGCUAGUGGAACAUGAGGAUCACCCAUGUCCUCAUUAGCUCGUCUUAU [Mat - Sensor v3 - Turn-off var 2 - D33] (puzzle: Sensor v3, turn-off variant 2) |  |  |  |  |  |  |  |  | 36.6 | 16.3 | 13.4
